Measured values published in patent publication US20190218553, “VON WILLEBRAND FACTOR (VWF)-TARGETING AGENTS AND METHODS OF USING THE SAME” (DUKE UNIVERSITY, published 2019).

Tests used:
[1] = molecular target: T1, von Willebrand factor (VWF) (Homo sapiens, UniProt P04275 P04275:764-2813); experiment: filter; Bmax 84%; 2 mM CaCl2, 37 C; details: Haematologic Technologies Inc, label: 5'-32P
Description: (§1) Affinity constants (Kd values) were determined using double-filter nitrocellulose filter binding assays (Rusconi et al, Thromb. Haemost. $4:841-848 (2000)). All binding studies were performed in binding buffer F (20 mM HEPES, pH 7.4, 150 mM NaCl, 2 mM CaCl₂, and 0.01% BSA) at 37° C. Human purified VWF (factor VIII free) was purchased from Haematologic Technologies Inc. (Essex Junction, Vt.) and used in the double-filter nitrocellulose filter binding assay to determine the Kd of the aptamers. Briefly, RNA were end-labeled at the 5′ end with T4 polynucleotide kinase (New England Biolabs, Beverly, Mass.) and [γ³²P] ATP (Amersham Pharmacia Biotech, Piscataway, N.J.) (Fitzwater and Polisky, Methods Enzymol. 267:275-301 (1996)). End-labeled RNA was diluted in binding buffer F, heat denatured at 65° C. for 5 minutes, and subsequently equilibrated at 37° C. Direct binding was performed by incubating trace ³²P-RNA with varying concentrations of VWF protein in binding buffer F at 37° C. for 5 min. The fraction of the nucleic acid-protein complex which bound to the nitrocellulose membrane was quantified with a phosphorimager (Molecular Dynamics, Sunnyvale, Calif.). Non-specific binding of the radiolabeled nucleic acid was subtracted out of the binding such that only specific binding remained (Wong and Lohman, Proc. Natl. Acad. Sci. USA 90:5428-5432 (1993)).

[2] = molecular target: T1, von Willebrand factor (VWF); experiment: filter; Bmax 60%; 2 mM CaCl2, 37 C; details: tags: factor VIII free, Haematologic Technologies Inc; label: 5'-32P
Description: as §1

[3] = molecular target: T1, von Willebrand factor (VWF); experiment: filter; Bmax 52%; 2 mM CaCl2, 37 C; details: tags: factor VIII free, Haematologic Technologies Inc; label: 5'-32P
Description: as §1

[4] = molecular target: T1, von Willebrand factor (VWF); experiment: filter; Bmax 10%; 2 mM CaCl2, 37 C; details: tags: factor VIII free, Haematologic Technologies Inc; label: 5'-32P
Description: as §1

[5] = molecular target: T1, von Willebrand factor (VWF); experiment: filter; Bmax 75%; 2 mM CaCl2, 37 C; details: tags: factor VIII free human purified VWF, Haematologic Technologies Inc; label: 5'-32P
Description: as §1

[6] = molecular target: T1, von Willebrand factor (VWF); experiment: filter; Bmax 79%; 2 mM CaCl2, 37 C; details: tags: factor VIII free, Haematologic Technologies Inc; label: 5'-32P
Description: as §1

[7] = molecular target: T1, von Willebrand factor (VWF); experiment: filter; Bmax 49%; 2 mM CaCl2, 37 C; details: tags: factor VIII free human purified VWF, Haematologic Technologies Inc; label: 5'-32P
Description: as §1

[8] = molecular target: T1, von Willebrand factor (VWF); experiment: filter; Bmax 56%; 2 mM CaCl2, 37 C; details: tags: factor VIII free, Haematologic Technologies Inc; label: 5'-32P
Description: as §1

[9] = molecular target: T1, von Willebrand factor (VWF); experiment: filter; Bmax 57%; 2 mM CaCl2, 37 C; details: tags: factor VIII free, Haematologic Technologies Inc; label: 5'-32P
Description: as §1

[10] = molecular target: T1, von Willebrand factor (VWF); experiment: filter; Bmax 83%; 2 mM CaCl2, 37 C; details: tags: factor VIII free human purified VWF, Haematologic Technologies Inc; label: 5'-32P
Description: as §1

[11] = molecular target: T1, von Willebrand factor (VWF); experiment: filter; Bmax 71%; 2 mM CaCl2, 37 C; details: tags: factor VIII free human purified VWF, Haematologic Technologies Inc; label: 5'-32P
Description: as §1

[12] = molecular target: T1, von Willebrand factor (VWF); experiment: filter; Bmax 72%; 2 mM CaCl2, 37 C; details: tags: factor VIII free human purified VWF, Haematologic Technologies Inc; label: 5'-32P
Description: as §1

[13] = molecular target: T1, von Willebrand factor (VWF); experiment: filter; Bmax 62%; 2 mM CaCl2, 37 C; details: tags: factor VIII free, Haematologic Technologies Inc; label: 5'-32P
Description: as §1

ACGAACUGCCCUCGAUCGACGCACAGACGU (ssRNA, mAfCmGmAmAmCfUrGfCfCfCfUmCmGmAmUmCmGrAfCrGfCrAmCmAmGmAfCmGfU-idT) [T59 vrt7]
Kd ([1]; tags: factor VIII free): 0.8 nM

ACGAACUGCCCUCGAUUAUUCGACGCACAGACGU (ssRNA, 2'-F C and U; 2'-OH A and G; 3' idT) [T49]
Kd [2]: 10.5 nM

ACGAACUGCCCUGAUUAUUCACGCACAGACGU (ssRNA, 2'-F C and U; 2'-OH A and G; 3' idT) [T69]
Kd [3]: 26 nM

ACGAACGCCCUCGAUUAUUCGACGCACGACGU (ssRNA, 2'-F C and U; 2'-OH A and G; 3' idT) [T63]
Kd [4]: 83 nM

ACGAACUGCCCUCGACUUAUGUCGACGCACAGACGU (ssRNA, 2'-F C and U; 2'-OH A and G; 3' idT) [T48]
Kd [3]: 12 nM

ACGAACUGCCCUCGUAUUAUUUCGACGCACAGACGU (ssRNA, 2'-F C9,C10,C11,C26,G27,C28; rest 2'-OMe; 3' idT) [T89 vrt7]
Kd [5]: 38.5 nM

ACGAACUGCCCUCGUAUUAUUUCGACGCACAGACGU (ssRNA, 2'-F C and U; 2'-OH A and G; 3' idT) [T89]
Kd [6]: 12 nM

ACGAACUGCCCUCGUAUUAUUUCGACGCACAGACGU (ssRNA, 2'-F C9,C10,C11,C26,C28,U36; rest 2'-OMe; 3' idT) [T89 vrt3]
Kd [7]: 63 nM

B1: T89 vrt1 (ssRNA)
RNA: ACGAACUGCCCUCGUAUUAUUUCGACGCACAGACGU
modifications: 2'-F C2,U7,C9,C10,C11,U12,C26,C28,C34,U36; ribo A1,G3,G8,A25,G27,A29,G35; rest 2'-OMe; 3' idT
Kd ([1]; tags: factor VIII free human purified VWF): 1.2 nM

ACGAACUGCCCUCAGACUUAUGUCUGACGCACAGACGU (ssRNA, 2'-F C and U; 2'-OH A and G; 3' idT) [T51]
Kd [8]: 17 nM

ACGAACUGCCCUCGAUCGACGCACAGACGU (ssRNA, mAmCmGmAmAmCfUrGfCfCfCmUmCmGmAmUmCmGmAfCmGfCmAmCmAmGmAmCmGfU-idT) [T59 vrt16]
Kd [9]: 132 nM

ACGAACUGCCCUCGAUCGACGCACAGACGUAAAAA (ssRNA, 2'-F C9,C10,C11,C20,G21,C22; rest 2'-OMe; 3' idT) [T83 vrt7]
Kd [10]: 265 nM

ACGAACUGCCCUCGAUCGACGCACAGACGUACACG (ssRNA, 2'-F C9,C10,C11,C20,G21,C22,U30; rest 2'-OMe; 3' idT) [T84 vrt6]
Kd [11]: 149 nM

B2: T84 vrt1 (ssRNA)
RNA: ACGAACUGCCCUCGAUCGACGCACAGACGUACACG
modifications: 2'-F C2,U7,C9,C10,C11,U12,C20,C22,C28,U30; ribo A1,G3,G8,A19,G21,A23,G29; rest 2'-OMe; 3' idT
Kd [12]: 1.7 nM

B3: T25 vrt9 (ssRNA)
RNA: ACGAACUGCCCUCAGCUACUUUCAUGUUGCUGACGCACAGACGU
modifications: rAfCrGrArAfCfUrGfCfCfCfUfCmAmGfCfUmAfCfUfUfUfCrAfUrGfUfUmGfCfUmGrAfCrGfCrAfCrArGrAfCrGfU-idT
Kd [9]: 9.8 nM

B4: T25 vrt13 (ssRNA)
RNA: ACGAACUGCCCUCAGCUACUUUCAUGUUGCUGACGCACAGACGU
modifications: rAfCrGmAmAmCfUrGfCfCfCfUmCmAmGmCmUmAmCmUmUmUmCmAmUmGmUmUmGmCmUmGrAfCrGfCrAmCmAmGmAfCrGfU-idT
Kd [6]: 1.9 nM

B5: T25 vrt10 (ssRNA)
RNA: ACGAACUGCCCUCAGCUACUUUCAUGUUGCUGACGCACAGACGU
modifications: rAfCrGrArAfCfUrGfCfCfCfUmCmAmGmCmUmAfCfUfUfUfCrAfUrGmUmUmGmCmUmGrAfCrGfCrAfCrArGrAfCrGfU-idT
Kd [13]: 5.7 nM

B6: T25 vrt17 (ssRNA)
RNA: ACGAACUGCCCUCAGCUACUUUCAUGUUGCUGACGCACAGACGU
modifications: rAfCrGrArAfCmUrGfCfCfCfUfCrArGfCfUrAfCfUfUfUfCrAfUrGfUfUrGfCfUrGrAfCrGfCmAfCrArGrAfCrGfU-idT
Kd [8]: 23 nM

B7: T25 vrt11 (ssRNA)
RNA: ACGAACUGCCCUCAGCUACUUUCAUGUUGCUGACGCACAGACGU
modifications: rAfCrGrArAfCfUrGfCfCfCfUfCrArGfCfUrAfCfUfUfUfCmAfUmGfUfUrGfCfUrGrAfCrGfCrAfCrArGrAfCrGfU-idT
Kd [9]: 7.2 nM
